According to US20260258143A1 (ODYSSEY THERAPEUTICS, published 2026):
Positions count from the first letter of the chain named.

T1: human CD25-extracellular domain (CD25-ECD) (human, UniProt P01589 22-240)
T1 construct: also called human CD25-ECD; hCD25 ECD
T1 sequence: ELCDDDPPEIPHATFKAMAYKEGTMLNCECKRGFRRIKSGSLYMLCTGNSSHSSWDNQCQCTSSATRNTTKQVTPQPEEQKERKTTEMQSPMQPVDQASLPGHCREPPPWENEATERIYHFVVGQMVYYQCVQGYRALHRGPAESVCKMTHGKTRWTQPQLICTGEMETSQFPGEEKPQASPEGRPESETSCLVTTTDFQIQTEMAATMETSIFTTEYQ

B1: ODY-83B05Hu1 (VHH)
VHH: EVQLLESGGGLVQPGGSLRLSCAASGFTLDYYAIGWFRQAPGKEREGVLSISSTDGRTYYADSVKGRFTISRDNPKNTVYLQLNSLRPEDTAVYYCAAKRLGPMVHRYSLEVLTPLFLDEYDYWGQGTQVTVSS
notes: Captured on an SPR chip spot; also called ODY-83B05 humanized VHH; ODY-83805Hu1
B2: ODY-83F07Hu1 (VHH)
VHH: B1 VHH with R107Q
notes: Captured on an SPR chip spot; also called ODY-83F07 humanized VHH
B3: ODY-83B03Hu1 (VHH)
VHH: EVQLVESGGGLVQPGGSLRLSCAASGMPLVAMGWYRQAPGKQRELVASISSGGNTGYADSVKGRFTISRDNAKKTVYLQMNSVRPEDTGVYYCNIYRSQVPPTRYSWGQGTQVTVSS
notes: Captured on an SPR chip spot; also called ODY-83B03 humanized VHH

target: T1, human CD25-extracellular domain …; experiment: SPR, V-body on chip, human CD25-ECD 500 nM then IL2-Fc 1000 nM
Procedure: The sensorgrams display IL2-Fc competition: association of human CD25-extracellular domain (ECD) to the V-body followed either by additional binding by IL2-Fc, Indicating an unoccupied epitope (non-overlapping epitopes), or no IL2-Fc binding, indicating epitope blocking (overlapping epitopes), and a buffer control, association and dissociation of human CD25-ECD in the absence of IL2-Fc. Human CD25-ECD was injected (500 nM) under physiological conditions (50 mM HEPES pH 7.4, 150 mM NaCl, 0.1% (w/v) BSA, 0.05% (v/v) Tween20, 25° C.) followed by human IL2-Fc (1000 nM). V-body ODY-83B03Hu1 was identified as a ligand competitive binder. ODY-83B05Hu1 and ODY-83F07Hu1 were identified as non-competitive binders.

binding result | Binder
binds | B1
binds | B2
binds | B3
